Results on 18 molecules are retold here after patent publication US20250145729A1 (DENALI THERAPEUTICS, published 2025).

For orientation: Kd means the concentration at which binding is half-saturated. Higher therefore signals weaker binding.

Test [1] deals with T1, cyno CD98hc (cynomolgus monkey).
T1 construct: also called cynomolgus CD98hc; cyCD98hc
In words: SPR (Biacore). The method, boiled down: (§1)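 Binding affinity (Kd) of the engineered Fc polypeptides for CD98hc was measured by surface plasmon resonance on a Biacore instrument. Clones were cloned, expressed and purified as Fc-Fab fusions carrying anti-BACE1 Fabs. They were tested in a bivalent format or in a monovalent knob/hole format with the CD98hc-binding site on the knob chain only. The text gives no concentrations, temperature, buffer or replicate numbers.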
On the technique in general: SPR reads the build-up and loss of mass on a sensor chip optically.

Test [2] has as its target T2, human CD98hc (human, UniProt P08195 109-529).
T2 construct: also called huCD98hc; CD98 heavy chain
T2 sequence: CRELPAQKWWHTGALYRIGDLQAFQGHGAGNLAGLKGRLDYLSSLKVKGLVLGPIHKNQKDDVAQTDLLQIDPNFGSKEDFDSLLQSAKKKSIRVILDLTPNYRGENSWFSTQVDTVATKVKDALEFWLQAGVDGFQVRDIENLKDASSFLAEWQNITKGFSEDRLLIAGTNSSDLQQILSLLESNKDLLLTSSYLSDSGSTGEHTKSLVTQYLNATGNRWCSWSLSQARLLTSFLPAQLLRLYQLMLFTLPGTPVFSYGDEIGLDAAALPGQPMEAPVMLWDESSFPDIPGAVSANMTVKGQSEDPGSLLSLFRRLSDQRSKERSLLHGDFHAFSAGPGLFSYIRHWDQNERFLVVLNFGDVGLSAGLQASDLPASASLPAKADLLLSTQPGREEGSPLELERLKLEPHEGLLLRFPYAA
In words: SPR (Biacore). The method, boiled down:
as §1

B1: LLB2-10-8-d5 BV (Fc fusion)
chain: APELLGGPSVFLFPPKPKDTLMISRTPEVTCVVVDVSHEDPEVKFNWYVDGVEVHNAKTKPREEQYNSTYRVVSVLTVLHQDWLNGKEYKCKVSNKALPAPIEKTISKAKGQPREPQVYTLPPSRDELTKNQVSLTCLVKGFYPSDIAVLWNSRFVLENNYKTTPPVLDSDGSFFLYSKLTVDKSRWQQGNVFACNVYHEALHNHYTFKNLSLSPGK
notes: Fc part only; changes read against LLB2-10-8; BV = bivalent
For B1, the results for the dissociation constant (Kd) in test [1] and in test [2] were 5500 nM and 1470 nM, respectively.

B2: LLB2-10-8-d8 BV (Fc fusion)
chain: APELLGGPSVFLFPPKPKDTLMISRTPEVTCVVVDVSHEDPEVKFNWYVDGVEVHNAKTKPREEQYNSTYRVVSVLTVLHQDWLNGKEYKCKVSNKALPAPIEKTISKAKGQPREPQVYTLPPSRDELTKNQVSLTCLVKGFYPSDIAVLWNSHYELENNYKTTPPVLDSDGSFFLYSKLTVDKSRWQQGEVFACNVYHEALHNHYTFKNLSLSPGK
notes: as for B1
As for B2, the equilibrium dissociation constant (Kd) in test [1] was determined as 3500 nM; in test [2] it was 820 nM.

B3: LLB2-10-8-d14 BV (Fc fusion)
chain: APELLGGPSVFLFPPKPKDTLMISRTPEVTCVVVDVSHEDPEVKFNWYVDGVEVHNAKTKPREEQYNSTYRVVSVLTVLHQDWLNGKEYKCKVSNKALPAPIEKTISKAKGQPREPQVYTLPPSRDELTKNQVSLTCLVKGFYPSDIAVLWNSQYELENNYKTTPPVLDSDGSFFLYSKLTVDKSRWQQGEVFACNVYHEALHNHYTFKNLSLSPGK
notes: as for B1
Turning to B3, the Kd in test [1] turned out to be 4050 nM; in test [2], 960 nM.

B4: LLB2-10-11 (Fc fusion)
chain: APELLGGPSVFLFPPKPKDTLMISRTPEVTCVVVDVSHEDPEVKFNWYVDGVEVHNAKTKPREEQYNSTYRVVSVLTVLHQDWLNGKEYKCKVSNKALPAPIEKTISKAKGQPREPQVYTLPPSRDELTKNQVSLTCLVKGFYPSDIAVLWNSRFLLENNYKTTPPVLDSDGSFFLYSKLTVDKSRWQQGEIFACNVYHEALHNHYTFKNLALSPGK
notes: Fc part only
Regarding B4, the Kd in test [1] came out at 1200 nM; in test [2] it was 230 nM.

B5: LLB2-10-8-d7 BV (Fc fusion)
chain: APELLGGPSVFLFPPKPKDTLMISRTPEVTCVVVDVSHEDPEVKFNWYVDGVEVHNAKTKPREEQYNSTYRVVSVLTVLHQDWLNGKEYKCKVSNKALPAPIEKTISKAKGQPREPQVYTLPPSRDELTKNQVSLTCLVKGFYPSDIAVLWNSHYELENNYKTTPPVLDSDGSFFLYSKLTVDKSRWQQGEIFACNVYHEALHNHYTFKNLSLSPGK
notes: as for B1
On to B5, for which the dissociation constant Kd in test [1] turned out to be 2000 nM; in test [2], 410 nM.

B6: LLB2-10-8-d9 BV (Fc fusion)
chain: APELLGGPSVFLFPPKPKDTLMISRTPEVTCVVVDVSHEDPEVKFNWYVDGVEVHNAKTKPREEQYNSTYRVVSVLTVLHQDWLNGKEYKCKVSNKALPAPIEKTISKAKGQPREPQVYTLPPSRDELTKNQVSLTCLVKGFYPSDIAVLWNSHYELENNYKTTPPVLDSDGSFFLYSKLTVDKSRWQQGEVFACNVYHEALHNHYTFKNLALSPGK
notes: as for B1
Regarding B6, the dissociation constant Kd in test [1] came to 4200 nM; in test [2] it was 840 nM.

B7: LLB2-10-10 (Fc fusion)
chain: APELLGGPSVFLFPPKPKDTLMISRTPEVTCVVVDVSHEDPEVKFNWYVDGVEVHNAKTKPREEQYNSTYRVVSVLTVLHQDWLNGKEYKCKVSNKALPAPIEKTISKAKGQPREPQVYTLPPSRDELTKNQVSLTCLVKGFYPSDIAVLWNSQFVLENNYKTTPPVLDSDGSFFLYSKLTVDKSRWQQGEIFACNVYHEALHNHYTFKNLALSPGK
notes: Fc part only
For the molecule B7, the Kd in test [1] is 1100 nM; in test [2], 220 nM.

B8: LLB2-10-8-d13 BV (Fc fusion)
chain: APELLGGPSVFLFPPKPKDTLMISRTPEVTCVVVDVSHEDPEVKFNWYVDGVEVHNAKTKPREEQYNSTYRVVSVLTVLHQDWLNGKEYKCKVSNKALPAPIEKTISKAKGQPREPQVYTLPPSRDELTKNQVSLTCLVKGFYPSDIAVLWNSQYELENNYKTTPPVLDSDGSFFLYSKLTVDKSRWQQGEIFACNVYHEALHNHYTFKNLSLSPGK
notes: as for B1
With B8, the dissociation constant (Kd) amounted to 2600 nM in test [1] and 650 nM in test [2].

B9: LLB2-10-9 (Fc fusion)
chain: APELLGGPSVFLFPPKPKDTLMISRTPEVTCVVVDVSHEDPEVKFNWYVDGVEVHNAKTKPREEQYNSTYRVVSVLTVLHQDWLNGKEYKCKVSNKALPAPIEKTISKAKGQPREPQVYTLPPSRDELTKNQVSLTCLVKGFYPSDIVVLWNSRFVLENNYKTTPPVLDSDGSFFLYSKLTVDKSRWQQGEIFACNVYHEALHNHYTFKNLALSPGK
notes: Fc part only
With B9, the Kd in test [1] was 1300 nM; in test [2], 250 nM.

B10: LLB2-10-8-d17 BV (Fc fusion)
chain: APELLGGPSVFLFPPKPKDTLMISRTPEVTCVVVDVSHEDPEVKFNWYVDGVEVHNAKTKPREEQYNSTYRVVSVLTVLHQDWLNGKEYKCKVSNKALPAPIEKTISKAKGQPREPQVYTLPPSRDELTKNQVSLTCLVKGFYPSDIAVLWNSQYELENNYKTTPPVLDSDGSFFLYSKLTVDKSRWQQGNVFACNVYHEALHNHYTFKNLSLSPGK
notes: as for B1
Regarding B10, the equilibrium dissociation constant (Kd) in test [1] stood at 4100 nM; in test [2], 960 nM.

B11: LLB2-10-8-d12 BV (Fc fusion)
chain: APELLGGPSVFLFPPKPKDTLMISRTPEVTCVVVDVSHEDPEVKFNWYVDGVEVHNAKTKPREEQYNSTYRVVSVLTVLHQDWLNGKEYKCKVSNKALPAPIEKTISKAKGQPREPQVYTLPPSRDELTKNQVSLTCLVKGFYPSDIAVLWNSHYELENNYKTTPPVLDSDGSFFLYSKLTVDKSRWQQGNVFACNVYHEALHNHYTFKNLALSPGK
notes: Fc part only; BV = bivalent
B11: the Kd stood at 5970 nM in test [1] and 2100 nM in test [2].

B12: LLB2-10-12 (Fc fusion)
chain: APELLGGPSVFLFPPKPKDTLMISRTPEVTCVVVDVSHEDPEVKFNWYVDGVEVHNAKTKPREEQYNSTYRVVSVLTVLHQDWLNGKEYKCKVSNKALPAPIEKTISKAKGQPREPQVYTLPPSRDELTKNQVSLTCLVKGFYPSDIAVLWNSRFVLENNYKTTPPVLDSDGSFFLYSKLTVDKSRWQQGEIFACNVYHEALHNHYTFKNLQLSPGK
notes: Fc part only
On to B12, for which the values for the Kd in test [1] and in test [2] were 1200 nM and 210 nM, respectively.

B13: LLB2-10-8-d15 BV (Fc fusion)
chain: APELLGGPSVFLFPPKPKDTLMISRTPEVTCVVVDVSHEDPEVKFNWYVDGVEVHNAKTKPREEQYNSTYRVVSVLTVLHQDWLNGKEYKCKVSNKALPAPIEKTISKAKGQPREPQVYTLPPSRDELTKNQVSLTCLVKGFYPSDIAVLWNSQYELENNYKTTPPVLDSDGSFFLYSKLTVDKSRWQQGEVFACNVYHEALHNHYTFKNLALSPGK
notes: as for B1
As to B13, the Kd in test [1] was determined as 4600 nM; in test [2] it was 1000 nM.

B14: LLB2-10-8-d16 BV (Fc fusion)
chain: APELLGGPSVFLFPPKPKDTLMISRTPEVTCVVVDVSHEDPEVKFNWYVDGVEVHNAKTKPREEQYNSTYRVVSVLTVLHQDWLNGKEYKCKVSNKALPAPIEKTISKAKGQPREPQVYTLPPSRDELTKNQVSLTCLVKGFYPSDIAVLWNSQYELENNYKTTPPVLDSDGSFFLYSKLTVDKSRWQQGNIFACNVYHEALHNHYTFKNLSLSPGK
notes: as for B1
Consider B14, for which the Kd in test [1] was 2500 nM; in test [2], 650 nM.

B15: LLB2-10-8-d6 BV (Fc fusion)
chain: APELLGGPSVFLFPPKPKDTLMISRTPEVTCVVVDVSHEDPEVKFNWYVDGVEVHNAKTKPREEQYNSTYRVVSVLTVLHQDWLNGKEYKCKVSNKALPAPIEKTISKAKGQPREPQVYTLPPSRDELTKNQVSLTCLVKGFYPSDIAVLWNSRFVLENNYKTTPPVLDSDGSFFLYSKLTVDKSRWQQGNVFACNVYHEALHNHYTFKNLALSPGK
notes: Fc part only; BV = bivalent
For the molecule B15, the dissociation constant Kd was found to be 5300 nM in test [1] and 1480 nM in test [2].

B16: LLB2-10-8-d11 BV (Fc fusion)
chain: APELLGGPSVFLFPPKPKDTLMISRTPEVTCVVVDVSHEDPEVKFNWYVDGVEVHNAKTKPREEQYNSTYRVVSVLTVLHQDWLNGKEYKCKVSNKALPAPIEKTISKAKGQPREPQVYTLPPSRDELTKNQVSLTCLVKGFYPSDIAVLWNSHYELENNYKTTPPVLDSDGSFFLYSKLTVDKSRWQQGNVFACNVYHEALHNHYTFKNLSLSPGK
notes: as for B1
With B16, the dissociation constant (Kd) turned out to be 7200 nM in test [1] and 2400 nM in test [2].

B17: LLB2-10-8-d10 BV (Fc fusion)
chain: APELLGGPSVFLFPPKPKDTLMISRTPEVTCVVVDVSHEDPEVKFNWYVDGVEVHNAKTKPREEQYNSTYRVVSVLTVLHQDWLNGKEYKCKVSNKALPAPIEKTISKAKGQPREPQVYTLPPSRDELTKNQVSLTCLVKGFYPSDIAVLWNSHYELENNYKTTPPVLDSDGSFFLYSKLTVDKSRWQQGNIFACNVYHEALHNHYTFKNLSLSPGK
notes: as for B1
For the molecule B17, the Kd came out at 4200 nM in test [1] and 1400 nM in test [2].

B18: LLB2-10-8-d18 BV (Fc fusion)
chain: APELLGGPSVFLFPPKPKDTLMISRTPEVTCVVVDVSHEDPEVKFNWYVDGVEVHNAKTKPREEQYNSTYRVVSVLTVLHQDWLNGKEYKCKVSNKALPAPIEKTISKAKGQPREPQVYTLPPSRDELTKNQVSLTCLVKGFYPSDIAVLWNSQYELENNYKTTPPVLDSDGSFFLYSKLTVDKSRWQQGNVFACNVYHEALHNHYTFKNLALSPGK
notes: Fc part only; BV = bivalent
As for B18, the results for the Kd in test [1] and in test [2] were 3010 nM and 880 nM, respectively.
